{
  "source": "patent CN113234160A",
  "about": "(GUANGZHOU EXCELMAB BIOMEDICAL TECH CO LTD, dated 2021)",
  "binders": {"B1": {"name": "hmp12 (antibody, V domains shown)", "VH": "EVQLVESGGGLVKPGGSLRLSCAASGFTFSSYDMSWVRQAPGKGLEWVATISGGGSYTYYADSVKGRFTISRDNAKNSLYLQMNSLRAEDTALYYCASPYAGYFDVWGQGTMVTVSS", "VL": "DIQMTQSPSSLSASVGDRVTITCSASSSISSNYLHWYQQKPGKAPKLLIYRTSNLQSGVPARFSGSGSGTSYSLTISSLQPEDFATYYCQQGSSIPLTFGQGTKLEIK", "notes": "also called 人源化抗体hmp12"}},
  "key": {"[1]": {"target": "T1, 人PD-1抗原 (ACRO, Cat.PD-1-H5221) (human, UniProt Q15116 25-167)", "T1 construct": "Bought antigen coated on ELISA plates; also called human PD-1 antigen; hPD-1", "T1 sequence (Q15116 25-167 limits assumed)": "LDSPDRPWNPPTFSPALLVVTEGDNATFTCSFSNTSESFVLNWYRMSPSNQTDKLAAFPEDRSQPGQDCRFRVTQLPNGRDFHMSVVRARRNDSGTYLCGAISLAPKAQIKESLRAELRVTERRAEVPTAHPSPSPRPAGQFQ", "experiment": "indirect ELISA, human PD-1 coated"}, "[2]": {"target": "T2, 人PD-1抗原 on Jurkat/PD-1 cells (human, UniProt Q15116 25-288)", "T2 construct": "whole, on cells; Used for the flow cytometry cells and for the Jurkat reporter cells that carry PD-1; also called 过表达人PD-1抗原的Jurkat细胞; Jurkat/hPD-1 NFAT-Luciferase", "T2 sequence (Q15116 25-288)": "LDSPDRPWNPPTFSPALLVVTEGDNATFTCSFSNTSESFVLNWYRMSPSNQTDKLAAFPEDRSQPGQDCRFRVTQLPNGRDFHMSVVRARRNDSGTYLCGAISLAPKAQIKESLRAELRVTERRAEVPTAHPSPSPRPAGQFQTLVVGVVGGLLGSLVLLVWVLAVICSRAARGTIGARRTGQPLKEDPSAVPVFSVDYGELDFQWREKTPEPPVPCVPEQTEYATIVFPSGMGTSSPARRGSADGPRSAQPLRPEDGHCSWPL", "experiment": "indirect flow cytometry on Jurkat/PD-1 cells"}},
  "data": [
    {"binder": "B1", "values": [
      {"measurement": "binding result", "setting": "[1]", "result": "binds"},
      {"measurement": "binding result", "setting": "[2]", "result": "binds"}
    ]}
  ]
}
